Experimental data taken from patent US20260184814A1, “BROADLY NE[…] INFLUENZA NEURAMINIDASE” (priority 2022, published 2026).

Experiments:
[1] = biological target: N2 A/Tanzania/205/2010 (82-469) S245N S247T (Influenza A virus); assay: SPR (Biacore), NA on anti-Avi chip, 1:1 model; NA code NA-19 (+glyc245)
[2] = biological target: N2 A/South_Australia/34/2019 (82-469) N245S (Influenza A virus); assay: SPR (Biacore), NA on anti-Avi chip, 1:1 model; NA code NA-24 (-glyc245)
[3] = biological target: N2 A/Tanzania/205/2010 (82-469) S245N S247T (Influenza A virus); assay: SPR; NA-19; set-up: unit not given beside the values
[4] = biological target: N2 A/South_Australia/34/2019 (82-469) N245S (Influenza A virus); assay: SPR; NA-24; set-up: unit not given beside the values
[5] = biological target: N2 A/Hong_Kong/2671/2019 (82-469) N245S (Influenza A virus); assay: SPR; NA-25; set-up: unit not given beside the values
[6] = biological target: N2 A/Tanzania/205/2010 (82-469) S245N S247T (Influenza A virus); assay: SPR, 1:1 binding; NA-19 "+glyc245"
[7] = biological target: N2 A/South_Australia/34/2019 (82-469) N245S (Influenza A virus); assay: SPR, 1:1 binding; NA-24 "-glyc245"
[8] = biological target: N2 A/Hong_Kong/2671/2019 (82-469) N245S (Influenza A virus); assay: SPR, 1:1 binding; NA-25 "-glyc245"

Row | Binder | fold-change in affinity compared to FNI9-v1.1 [1] | fold-change in affinity compared to FNI9-v1.1 [2] | KD compared to v1.1 [3] | KD compared to v1.1 [4] | KD compared to v1.1 [5] | Kd [6] [nM] | Kd [7] [nM] | Kd [8] [nM]
1 | FNI9-v4.1 (antibody, V domains shown) VH: QVHLVQSGAEVKEPGSSVTVSCKASGGSFSNQAISWVRQAPGQGLEWMGGIFPISGTPTSAQRFQGRVTFTADESTTTVYMDLSSLRSDDTAVYYCARAGSDYFNRDLGWENYYFASWGQGTLVTVSS VL: EIVMTQSPATLSLSSGERATLSCRASRSVSSNLAWYQQKPGQAPRLLIYDASTRATGFSARFAGSGSGTEFTLTISSLQSEDSAIYYCQQYNNWPPWTFGQGTKVEIK | 2.47 | 1.53 | – | – | – | – | – | –
2 | FNI9-v9.1 (antibody, V domains shown) VH: QVHLVQSGAEVKEPGSSVTVSCKASGGSFNNQAISWVRQAPGQGLEWMGGIFPISGTATSAQRFQGRVTITADESTTTVYMDLSSLRSDDTAVYYCARAGSDYFNRDLGWENYYFASWGQGTLVTVSS VL: EIVMTQSPATLSLSSGERATLSCRASRSVSSNLAWYQQKPGQAPRLLIYDASTRATGFSARFAGSGSGTEFTLTISSLQSEDSAIYYCQQYNNWPPWTFGQGTKVEIK | 4.59 | 0.99 | – | – | – | – | – | –
3 | Fab FNI9-v4.1 (Fab, V domains shown) VH: QVHLVQSGAEVKEPGSSVTVSCKASGGSFSNQAISWVRQAPGQGLEWMGGIFPISGTPTSAQRFQGRVTFTADESTTTVYMDLSSLRSDDTAVYYCARAGSDYFNRDLGWENYYFASWGQGTLVTVSS VL: EIVMTQSPATLSLSSGERATLSCRASRSVSSNLAWYQQKPGQAPRLLIYDASTRATGFSARFAGSGSGTEFTLTISSLQSEDSAIYYCQQYNNWPPWTFGQGTKVEIK | – | – | 1.23 | 1.66 | 1.53 | 8.31 | 22.8 | 1.07
4 | Fab FNI9-v8.1 (Fab, V domains shown) VH: QVHLVQSGAEVKEPGSSVTVSCKASGGTFNNQAISWVRQAPGQGLEWMGGIFPISGTPTSAQRFQGRVTFTADESTTTVYMDLSSLRSDDTAVYYCARAGSDYFNRDLGWENYYFASWGQGTLVTVSS VL: EIVMTQSPATLSLSSGERATLSCRASRSVSSNLAWYQQKPGQAPRLLIYDASTRATGFSARFAGSGSGTEFTLTISSLQSEDSAIYYCQQYNNWPPWTFGQGTKVEIK | – | – | 0.57 | 0.82 | 0.7 | 3.83 | 11.2 | 0.49
5 | FNI9-v8.1 (antibody, V domains shown) VH: QVHLVQSGAEVKEPGSSVTVSCKASGGTFNNQAISWVRQAPGQGLEWMGGIFPISGTPTSAQRFQGRVTFTADESTTTVYMDLSSLRSDDTAVYYCARAGSDYFNRDLGWENYYFASWGQGTLVTVSS VL: EIVMTQSPATLSLSSGERATLSCRASRSVSSNLAWYQQKPGQAPRLLIYDASTRATGFSARFAGSGSGTEFTLTISSLQSEDSAIYYCQQYNNWPPWTFGQGTKVEIK | 1.12 | 0.42 | – | – | – | – | – | –
